Results on 5 substances are retold here after paper PMC11410209.

The target in this test is 2526 IgG3. Nature of the test: ELISA. The note with it: read off a plot. In general terms: ELISA stands for enzyme-linked immunosorbent assay.

On to “H1 NC99 trimer, wild type HA (Fig 5A) (from UniProt Q6WG00) N23T”, for which the response (parent: est. 4.0) was 2.8 Abs (450nm).
With WT-NTD N61A, the response is 2.7 Abs (450nm).
Consider WT-NTD N149A, for which the response is 1 Abs (450nm).
For WT-NTD N165A, the response was 2.7 Abs (450nm).
The same measure, in the same setting: then WT-NTD N234A, with 1.7 Abs (450nm).
